Key:
[1] = molecular target: T1, FcγRIIIa extracellular domain with C-terminal His tag (human, UniProt P08637 17-208); assay: SPR (Biacore), relative binding
T1 construct: extracellular domain; also called FcgRIIIa; 3a; not shown: His tag attached to the C terminus
Experimental: (§1) Analysis of interaction between objective antibody and the FcγR was carried out using Biacore T100 (GE Healthcare). HBS-EP+ (GE Healthcare) was used as the running buffer, and the measurement temperature was set to 25° C. Chips produced by immobilizing the antigen peptide by the amine coupling method to a Series S Sencor Chip CM5 (GE Healthcare), or alternatively, chips produced by allowing preliminarily biotinylated antigen peptides to interact with and immobilize onto a Series S Sensor Chip SA (certified) (GE Healthcare) were used. Antibodies of interest were captured onto an antigen peptide-immobilized chip, and allowed to interact to each FcγR diluted with running buffer. To regenerate and repeatedly use the chip, the antibodies captured on the chip were washed off by reacting 10 mM glycine-HCl, pH 1.5.
(§2) The FcγR-binding activity of each antibody was assessed primarily using as an indicator the FcγR-binding activity and dissociation constant for FcγR.

[2] = molecular target: T2, FcγRIIb extracellular domain with C-terminal His tag (human, UniProt P31994 43-217); assay: SPR (Biacore), relative binding
T2 construct: extracellular domain; also called FcgRIIb; 2b; not shown: His tag attached to the C terminus
T2 sequence (looked up): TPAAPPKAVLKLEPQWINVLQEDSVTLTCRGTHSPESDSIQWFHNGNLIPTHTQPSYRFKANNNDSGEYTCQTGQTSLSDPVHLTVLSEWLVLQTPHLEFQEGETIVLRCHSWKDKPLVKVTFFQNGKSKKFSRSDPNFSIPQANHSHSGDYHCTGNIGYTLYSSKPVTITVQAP
Experimental: as §1, §2

[3] = molecular target: T1, FcγRIIIa extracellular domain with …; assay: SPR (Biacore); He/Con_3a divided by He/Con_2b (reference: binding to FcγRIIb)
Experimental: as §1, §2

T1 sequence (P08637 17-208): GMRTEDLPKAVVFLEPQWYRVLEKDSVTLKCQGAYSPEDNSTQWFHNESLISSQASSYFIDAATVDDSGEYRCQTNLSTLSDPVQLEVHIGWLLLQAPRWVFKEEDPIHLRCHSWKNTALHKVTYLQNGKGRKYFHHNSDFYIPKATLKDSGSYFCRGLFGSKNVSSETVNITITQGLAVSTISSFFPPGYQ

B1: GpH7-A5/GpH7-B3 variant N325_02A/GpL16-k0 (antibody, human IgG1, kappa)
heavy 1: not shown
heavy 2: not shown
light: DIVMTQSPLSLPVTPGEPASISCQASESLVHSNRNTYLHWYLQKPGQSPQLLIYKVSNRFSGVPDRFSGSGSGTDFTLKISRVEAEDVGVYYCSQNTHVPPTFGQGTKVEIERTVAAPSVFIFPPSDEQLKSGTASVVCLLNNFYPREAKVQWKVDNALQSGNSQESVTEQDSKDSTYSLSSTLTLSKADYEKHKVYACEVTHQGLSSPVTKSFNRGEC
notes: Heterodimerized IgG1; alteration in one H chain only; also called He Ab
[1]
  He/Con_3a (IIIa binding): 30.5 % of GpH7-A5/GpH7-B3/GpL16-k0 (=100)
[2]
  He/Con_2b (IIb binding): 64.4 % of GpH7-A5/GpH7-B3/GpL16-k0 (=100)
[3]
  He_3a/2b (IIIa/IIb): 0.47 ratio

B2: GpH7-A5/GpH7-B3 variant L328_02A/GpL16-k0 (antibody, human IgG1, kappa)
heavy 1: not shown
heavy 2: not shown
light: DIVMTQSPLSLPVTPGEPASISCQASESLVHSNRNTYLHWYLQKPGQSPQLLIYKVSNRFSGVPDRFSGSGSGTDFTLKISRVEAEDVGVYYCSQNTHVPPTFGQGTKVEIERTVAAPSVFIFPPSDEQLKSGTASVVCLLNNFYPREAKVQWKVDNALQSGNSQESVTEQDSKDSTYSLSSTLTLSKADYEKHKVYACEVTHQGLSSPVTKSFNRGEC
notes: as for B1
[1]
  He/Con_3a (IIIa binding): 79.1 % of GpH7-A5/GpH7-B3/GpL16-k0 (=100)
[2]
  He/Con_2b (IIb binding): 144 % of GpH7-A5/GpH7-B3/GpL16-k0 (=100)
[3]
  He_3a/2b (IIIa/IIb): 0.55 ratio

B3: GpH7-A5/GpH7-B3 variant N325_06M/GpL16-k0 (antibody, human IgG1, kappa)
heavy 1: not shown
heavy 2: not shown
light: DIVMTQSPLSLPVTPGEPASISCQASESLVHSNRNTYLHWYLQKPGQSPQLLIYKVSNRFSGVPDRFSGSGSGTDFTLKISRVEAEDVGVYYCSQNTHVPPTFGQGTKVEIERTVAAPSVFIFPPSDEQLKSGTASVVCLLNNFYPREAKVQWKVDNALQSGNSQESVTEQDSKDSTYSLSSTLTLSKADYEKHKVYACEVTHQGLSSPVTKSFNRGEC
notes: as for B1
[1]
  He/Con_3a (IIIa binding): 31.4 % of GpH7-A5/GpH7-B3/GpL16-k0 (=100)
[2]
  He/Con_2b (IIb binding): 217 % of GpH7-A5/GpH7-B3/GpL16-k0 (=100)
[3]
  He_3a/2b (IIIa/IIb): 0.14 ratio

B4: GpH7-A5/GpH7-B3 variant N325_07I/GpL16-k0 (antibody, human IgG1, kappa)
heavy 1: not shown
heavy 2: not shown
light: DIVMTQSPLSLPVTPGEPASISCQASESLVHSNRNTYLHWYLQKPGQSPQLLIYKVSNRFSGVPDRFSGSGSGTDFTLKISRVEAEDVGVYYCSQNTHVPPTFGQGTKVEIERTVAAPSVFIFPPSDEQLKSGTASVVCLLNNFYPREAKVQWKVDNALQSGNSQESVTEQDSKDSTYSLSSTLTLSKADYEKHKVYACEVTHQGLSSPVTKSFNRGEC
notes: as for B1
[1]
  He/Con_3a (IIIa binding): 28.7 % of GpH7-A5/GpH7-B3/GpL16-k0 (=100)
[2]
  He/Con_2b (IIb binding): 171 % of GpH7-A5/GpH7-B3/GpL16-k0 (=100)
[3]
  He_3a/2b (IIIa/IIb): 0.17 ratio

B5: GpH7-A5/GpH7-B3 variant N325_04F/GpL16-k0 (antibody, human IgG1, kappa)
heavy 1: not shown
heavy 2: not shown
light: DIVMTQSPLSLPVTPGEPASISCQASESLVHSNRNTYLHWYLQKPGQSPQLLIYKVSNRFSGVPDRFSGSGSGTDFTLKISRVEAEDVGVYYCSQNTHVPPTFGQGTKVEIERTVAAPSVFIFPPSDEQLKSGTASVVCLLNNFYPREAKVQWKVDNALQSGNSQESVTEQDSKDSTYSLSSTLTLSKADYEKHKVYACEVTHQGLSSPVTKSFNRGEC
notes: as for B1
[1]
  He/Con_3a (IIIa binding): 20.7 % of GpH7-A5/GpH7-B3/GpL16-k0 (=100)
[2]
  He/Con_2b (IIb binding): 143 % of GpH7-A5/GpH7-B3/GpL16-k0 (=100)
[3]
  He_3a/2b (IIIa/IIb): 0.14 ratio

B6: GpH7-A5/GpH7-B3 variant N325_09D/GpL16-k0 (antibody, human IgG1, kappa)
heavy 1: not shown
heavy 2: not shown
light: DIVMTQSPLSLPVTPGEPASISCQASESLVHSNRNTYLHWYLQKPGQSPQLLIYKVSNRFSGVPDRFSGSGSGTDFTLKISRVEAEDVGVYYCSQNTHVPPTFGQGTKVEIERTVAAPSVFIFPPSDEQLKSGTASVVCLLNNFYPREAKVQWKVDNALQSGNSQESVTEQDSKDSTYSLSSTLTLSKADYEKHKVYACEVTHQGLSSPVTKSFNRGEC
notes: as for B1
[1]
  He/Con_3a (IIIa binding): 48 % of GpH7-A5/GpH7-B3/GpL16-k0 (=100)
[2]
  He/Con_2b (IIb binding): 124 % of GpH7-A5/GpH7-B3/GpL16-k0 (=100)
[3]
  He_3a/2b (IIIa/IIb): 0.39 ratio

B7: GpH7-A5/GpH7-B3 variant N325_08L/GpL16-k0 (antibody, human IgG1, kappa)
heavy 1: not shown
heavy 2: not shown
light: DIVMTQSPLSLPVTPGEPASISCQASESLVHSNRNTYLHWYLQKPGQSPQLLIYKVSNRFSGVPDRFSGSGSGTDFTLKISRVEAEDVGVYYCSQNTHVPPTFGQGTKVEIERTVAAPSVFIFPPSDEQLKSGTASVVCLLNNFYPREAKVQWKVDNALQSGNSQESVTEQDSKDSTYSLSSTLTLSKADYEKHKVYACEVTHQGLSSPVTKSFNRGEC
notes: as for B1
[1]
  He/Con_3a (IIIa binding): 33.3 % of GpH7-A5/GpH7-B3/GpL16-k0 (=100)
[2]
  He/Con_2b (IIb binding): 197 % of GpH7-A5/GpH7-B3/GpL16-k0 (=100)
[3]
  He_3a/2b (IIIa/IIb): 0.17 ratio

B8: GpH7-A5/GpH7-B3 variant L328_03V/GpL16-k0 (antibody, human IgG1, kappa)
heavy 1: not shown
heavy 2: not shown
light: DIVMTQSPLSLPVTPGEPASISCQASESLVHSNRNTYLHWYLQKPGQSPQLLIYKVSNRFSGVPDRFSGSGSGTDFTLKISRVEAEDVGVYYCSQNTHVPPTFGQGTKVEIERTVAAPSVFIFPPSDEQLKSGTASVVCLLNNFYPREAKVQWKVDNALQSGNSQESVTEQDSKDSTYSLSSTLTLSKADYEKHKVYACEVTHQGLSSPVTKSFNRGEC
notes: as for B1
[1]
  He/Con_3a (IIIa binding): 78.7 % of GpH7-A5/GpH7-B3/GpL16-k0 (=100)
[2]
  He/Con_2b (IIb binding): 126 % of GpH7-A5/GpH7-B3/GpL16-k0 (=100)
[3]
  He_3a/2b (IIIa/IIb): 0.63 ratio

B9: GpH7-A5/GpH7-B3 variant N325_11K/GpL16-k0 (antibody, human IgG1, kappa)
heavy 1: not shown
heavy 2: not shown
light: DIVMTQSPLSLPVTPGEPASISCQASESLVHSNRNTYLHWYLQKPGQSPQLLIYKVSNRFSGVPDRFSGSGSGTDFTLKISRVEAEDVGVYYCSQNTHVPPTFGQGTKVEIERTVAAPSVFIFPPSDEQLKSGTASVVCLLNNFYPREAKVQWKVDNALQSGNSQESVTEQDSKDSTYSLSSTLTLSKADYEKHKVYACEVTHQGLSSPVTKSFNRGEC
notes: as for B1
[1]
  He/Con_3a (IIIa binding): 5.2 % of GpH7-A5/GpH7-B3/GpL16-k0 (=100)
[2]
  He/Con_2b (IIb binding): 10.4 % of GpH7-A5/GpH7-B3/GpL16-k0 (=100)
[3]
  He_3a/2b (IIIa/IIb): 0.5 ratio
